Reference: article PMC6423188, “HYNIC and DOMA conjugated radiolabeled bombesin analogs as receptor-targeted probes for scintigraphic detection of breast tumor” (EJNMMI Research, 2019)
Read-outs that look alike come from different tables or passages of the source. Where a SMILES comes first, the peptide text is derived from it.

How the values were obtained:
physchem = format: physicochemical; settings: buffer or solvent, pH 7.4
Procedure: (§1) In vitro radiochemical stability of ^99mTc-BN1/^99mTc-BN2/^99mTc-BN3 and ^99mTc-BN4, ^99mTc-BNS were assessed by incubating HPLC purified radiopeptides in phosphate buffer saline (PBS at pH 7.4) and freshly collected rat serum for 1–24 h at […]. Then, 90 μL of radiolabeled peptide ^99mTc-BN1/^99mTc-BN2/^99mTc-BN3/^99mTc-BN4/^99mTc-BNS solution were incubated under agitation at 37 °C with either 1.0 mL saline or fresh rat serum, and the mixtures were incubated at 37 °C for 24 h. Samples were periodically withdrawn from the mixture at 0, 2, 4, 6, 8, 12, and 24 h incubation period and analyzed by ITLC. In the case of rat serum, the aliquot was added to 100 μL 50% trifluoroacetic acid (TFA). After centrifugation (3000 rpm), the supernatant was analyzed by ITLC using acetone as the developing solvent; 10 μL of this mixture was taken at each time point, added to a strip ITLC whereby the percentage of ^99mTc-BN1/^99mTc-BN2/^99mTc-BN3/^99mTc-BN4/^99mTc-BNS was determined using gamma counter.
(§2) In vitro stability of ^99mTc-labeled bombesin analogs incubated at 37 °C with either freshly collected rat serum or normal saline were monitored up to 24 h. […] The new radiolabeled peptide conjugates were stable up to 24 h post labeling period at room temperature, with no observable degradation or transchelation to serum proteins.

In vivo biodistribution = experiment: In vivo biodistribution; set-up: species or system mouse; settings: BALB/c, mouse, in vivo, total radioactivity
How it was run: (§3)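 BALB/c mice immunosuppressed with cyclosporine-A (30 mg/kg/day i.p.) bore subcutaneous MDA-MB-231 tumours (~0.5 cm); ^99mTc-bombesin analogs given i.v. via tail vein, three mice per group. Organs excised at 5, 30, 60 and 120 min and gamma-counted as decay-corrected %IA/g; blocking used 0.03 nmol tracer (2 MBq) plus 25 nmol unlabelled BN peptide, read at 60 and 120 min.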

[1] = system: MDA-MB-231 tumor-bearing mice; experiment: In vivo biodistribution; set-up: species or system mouse; settings: BALB/c, mouse, in vivo, iv
How it was run: as §3

in vitro = in vitro ADME; settings: rat, serum
Procedure: as §1, §2

CCCC[C@H](NC(=O)[C@@H](Cc1ccc(O)cc1)NC(=O)[C@H](Cc1c[nH]cn1)NC(=O)[C@H]1CCCN1C(=O)[C@@H](NC(=O)[C@H](C)NC(=O)[C@H](Cc1c[nH]c2ccccc12)NC(=O)[C@H](CCC(N)=O)NC(=O)CCCNC(=O)CN1CCNCCNCCNCC1)C(C)C)C(N)=O [99mTc-BN4, ^99mTc-DOMA-GABA-[Pro^11Tyr^13Nle^14]-BN(7-14)NH2, metal not drawn] (HELM PEPTIDE1{[O=C(CN1CCNCCNCCNCC1)[*:2]].[O=C(CCCN[*:1])[*:2]].Q.W.A.V.[dP].H.[dY].[Nle].[am]}$$$$V2.0) gave a remaining at 2 h (physchem) of 95.5 ± 0.03%, a remaining at 4 h (physchem) of 95 ± 0.07% and a remaining at 6 h (physchem) of 93.5 ± 0.12%. For the same compound, the remaining at 8 h (physchem) was 92.5 ± 0.2%, the remaining at 12 h (physchem) was 90 ± 0.11% and the remaining at 24 h (physchem) was 88 ± 0.14%. It also gave a tissue uptake at 5 min (In vivo biodistribution; iv, Blood uptake) of 0.42 ± 0.01 %ID/g, a tissue uptake at 0.5 h (In vivo biodistribution; iv, Blood uptake) of 0.81 ± 0.01 %ID/g and a tissue uptake at 1 h (In vivo biodistribution; iv, Blood uptake) of 0.42 ± 0.03 %ID/g. The tissue uptake at 2 h (In vivo biodistribution; iv, Blood uptake) was 0.17 %ID/g, the tissue uptake at 5 min (In vivo biodistribution; iv, Heart uptake) was 0.73 ± 0.03 %ID/g and the tissue uptake at 0.5 h (In vivo biodistribution; iv, Heart uptake) was 0.67 ± 0.02 %ID/g. For the same compound, the tissue uptake at 1 h (In vivo biodistribution; iv, Heart uptake) was 0.25 ± 0.02 %ID/g, the tissue uptake at 2 h (In vivo biodistribution; iv, Heart uptake) was 0.09 ± 0.04 %ID/g and the tissue uptake at 5 min (In vivo biodistribution; iv, Intestine uptake) was 1.01 ± 0.06 %ID/g. The tissue uptake at 0.5 h (In vivo biodistribution; iv, Intestine uptake) was 1.6 ± 0.05 %ID/g, the tissue uptake at 1 h (In vivo biodistribution; iv, Intestine uptake) was 2.15 ± 0.21 %ID/g and the tissue uptake at 2 h (In vivo biodistribution; iv, Intestine uptake) was 0.82 ± 0.05 %ID/g. It also gave a tissue uptake at 5 min (In vivo biodistribution; iv, Kidney uptake) of 2.17 ± 0.11 %ID/g, a tissue uptake at 0.5 h (In vivo biodistribution; iv, Kidney uptake) of 3.95 ± 0.21 %ID/g and a tissue uptake at 1 h (In vivo biodistribution; iv, Kidney uptake) of 3.1 ± 0.17 %ID/g. For the same compound, the tissue uptake at 2 h (In vivo biodistribution; iv, Kidney uptake) was 2.1 ± 0.13 %ID/g, the tissue uptake at 5 min (In vivo biodistribution; iv, Liver uptake) was 0.4 ± 0.03 %ID/g and the tissue uptake at 0.5 h (In vivo biodistribution; iv, Liver uptake) was 0.32 ± 0.13 %ID/g. It also gave a tissue uptake at 1 h (In vivo biodistribution; iv, Liver uptake) of 0.28 ± 0.12 %ID/g, a tissue uptake at 2 h (In vivo biodistribution; iv, Liver uptake) of 0.17 ± 0.03 %ID/g and a tissue uptake at 5 min (In vivo biodistribution; iv, Lung uptake) of 1.07 ± 0.14 %ID/g. For the same compound, the tissue uptake at 0.5 h (In vivo biodistribution; iv, Lung uptake) was 0.82 ± 0.03 %ID/g, the tissue uptake at 1 h (In vivo biodistribution; iv, Lung uptake) was 0.7 ± 0.02 %ID/g and the tissue uptake at 2 h (In vivo biodistribution; iv, Lung uptake) was 0.25 ± 0.11 %ID/g. It also gave a tissue uptake at 5 min (In vivo biodistribution; iv, Muscle uptake) of 0.26 ± 0.02 %ID/g, a tissue uptake at 0.5 h (In vivo biodistribution; iv, Muscle uptake) of 0.32 ± 0.04 %ID/g and a tissue uptake at 1 h (In vivo biodistribution; iv, Muscle uptake) of 0.25 ± 0.02 %ID/g. It also gave a tissue uptake at 2 h (In vivo biodistribution; iv, Muscle uptake) of 0.1 ± 0.01 %ID/g, a tissue uptake at 5 min (In vivo biodistribution; iv, Pancreas uptake) of 2.88 ± 0.11 %ID/g and a tissue uptake at 0.5 h (In vivo biodistribution; iv, Pancreas uptake) of 4.49 ± 0.03 %ID/g. The tissue uptake at 1 h (In vivo biodistribution; iv, Pancreas uptake) was 3.75 ± 0.06 %ID/g, the tissue uptake at 2 h (In vivo biodistribution; iv, Pancreas uptake) was 1.1 ± 0.04 %ID/g and the tissue uptake at 5 min (In vivo biodistribution; iv, Spleen uptake) was 0.62 ± 0.04 %ID/g. It also gave a tissue uptake at 0.5 h (In vivo biodistribution; iv, Spleen uptake) of 0.56 ± 0.01 %ID/g, a tissue uptake at 1 h (In vivo biodistribution; iv, Spleen uptake) of 0.24 ± 0.01 %ID/g and a tissue uptake at 2 h (In vivo biodistribution; iv, Spleen uptake) of 0.17 ± 0.02 %ID/g. It also gave a tissue uptake at 5 min (In vivo biodistribution; iv, Stomach uptake) of 0.47 ± 0.02 %ID/g, a tissue uptake at 0.5 h (In vivo biodistribution; iv, Stomach uptake) of 0.51 ± 0.04 %ID/g and a tissue uptake at 2 h (In vivo biodistribution; iv, Stomach uptake) of 0.12 ± 0.01 %ID/g. It also gave a tissue uptake at 5 min (In vivo biodistribution; iv, Tumor uptake) of 1.3 ± 0.01 %ID/g, a tissue uptake at 0.5 h (In vivo biodistribution; iv, Tumor uptake) of 3.32 ± 0.01 %ID/g and a tissue uptake at 1 h (In vivo biodistribution; iv, Tumor uptake) of 2.85 ± 0.02 %ID/g. For the same compound, the tissue uptake at 2 h (In vivo biodistribution; iv, Tumor uptake) was 1.31 ± 0.03 %ID/g, the tissue to tissue ratio at 5 min (In vivo biodistribution; iv, tumor/blood ratio) was 3 and the tissue to tissue ratio at 0.5 h (In vivo biodistribution; iv, tumor/blood ratio) was 4.09. For the same compound, the tissue to tissue ratio at 1 h (In vivo biodistribution; iv, tumor/blood ratio) was 6.78, the tissue to tissue ratio at 2 h (In vivo biodistribution; iv, tumor/blood ratio) was 7.7 and the tissue to tissue ratio at 5 min (In vivo biodistribution; iv, tumor/kidney ratio) was 0.59. For the same compound, the tissue to tissue ratio at 0.5 h (In vivo biodistribution; iv, tumor/kidney ratio) was 0.84, the tissue to tissue ratio at 1 h (In vivo biodistribution; iv, tumor/kidney ratio) was 0.91 and the tissue to tissue ratio at 2 h (In vivo biodistribution; iv, tumor/kidney ratio) was 0.62. It also gave a tissue to tissue ratio at 5 min (In vivo biodistribution; iv, tumor/muscle ratio) of 5, a tissue to tissue ratio at 0.5 h (In vivo biodistribution; iv, tumor/muscle ratio) of 10.4 and a tissue to tissue ratio at 1 h (In vivo biodistribution; iv, tumor/muscle ratio) of 11.4. It also gave a tissue to tissue ratio at 2 h (In vivo biodistribution; iv, tumor/muscle ratio) of 12.4, a tissue uptake at 1 h (In vivo biodistribution; 60 min p.i., blocked with excess non-radiolabeled BN peptide, MDA-MB-231 tumor, mean ± SD, n = 3, read-out: Tumor uptake) of 0.66 ± 0.2 %ID/g and a tissue uptake at 1 h (In vivo biodistribution; 60 min p.i., blocked with excess non-radiolabeled BN peptide, mean ± SD, n = 3, read-out: Blood uptake) of 0.29 ± 0.01 %ID/g. For the same compound, the tissue uptake at 1 h (In vivo biodistribution; 60 min p.i., blocked with excess non-radiolabeled BN peptide, mean ± SD, n = 3, read-out: Heart uptake) was 0.27 ± 0.11 %ID/g, the tissue uptake at 1 h (In vivo biodistribution; 60 min p.i., blocked with excess non-radiolabeled BN peptide, mean ± SD, n = 3, read-out: Intestine uptake) was 1.66 ± 0.23 %ID/g and the tissue uptake at 1 h (In vivo biodistribution; 60 min p.i., blocked with excess non-radiolabeled BN peptide, mean ± SD, n = 3, read-out: Kidney uptake) was 3.18 ± 0.2 %ID/g. For the same compound, the tissue uptake at 1 h (In vivo biodistribution; Lung uptake) was 0.78 ± 0.02 %ID/g, the tissue uptake at 1 h (In vivo biodistribution; Muscle uptake) was 0.13 ± 0.1 %ID/g and the tissue uptake at 1 h (In vivo biodistribution; Spleen uptake) was 0.26 ± 0.03 %ID/g. The tissue uptake at 1 h (In vivo biodistribution; Stomach uptake) was 0.63 ± 0.1 %ID/g, the Liver uptake ([1]; 0.5 h) was 0.52 ± 0.13 %IA/g and the Stomach uptake ([1]; 0.5 h) was 0.91 ± 0.04 %IA/g. For the same compound, the Pancreas uptake ([1]; 1 h) was 1.98 ± 0.02 %IA/g, the Stomach uptake ([1]; 2 h) was 0.20 ± 0.01 %IA/g and the remaining at 4 h (in vitro) was 97.6 ± 0.05%. The remaining at 6 h (in vitro) was 97 ± 0.18%, the remaining at 8 h (in vitro) was 96.4 ± 0.2% and the remaining at 12 h (in vitro) was 95.2 ± 0.05%. The remaining at 24 h (in vitro) was 93.3 ± 0.02%.
